According to article PMC12615485, “New dengue virus inhibitors targeting NS3-NS5 interaction identified by in silico screening” (Frontiers in Microbiology, 2025):

Molecular target: 6His-NS5 RdRp(270-900) of DENV-2 NGC strain (DENV-2 NGC strain)
Test: ELISA
Details: both partners purified

How did the IC50 turn out when EGEWKEGEEVQVLAL [NS3(86-100) peptide of DENV-2] was run?
Its IC50 is > 200 µM.
